# B1: Guanyl-specific ribonuclease T1 wild type, P00651 (protein)
# chain: MMYSKLLTLTTLLLPTALALPSLVERACDYTCGSNCYSSSDVSTAQAAGYQLHEDGETVGSNSYPHKYNNYEGFDFSVSSPYYEWPILSSGDVYSGGSPGADRVVFNENNQLAGVITHTGASGNNFVECT
# Conditions: Aspergillus oryzae (strain ATCC 42149 / RIB 40), 25 °C, GdnHCl, Absorbance, Unknown, KCl 0.1 M, reversible: yes, whole UniProt chain shown
protein,measurement,setting,value
B1,denaturant m value,pH 1.3,2.03 kcal/mol/M
same,denaturant midpoint (higher = more stable),pH 1.3,0.93 M
same,unfolding free energy,pH 1.3,1.9 kcal/mol
same,denaturant m value,pH 3,2.91 kcal/mol/M
same,denaturant midpoint (higher = more stable),pH 3,1.94 M
same,unfolding free energy,pH 3,5.66 kcal/mol
same,denaturant m value,pH 7,2.93 kcal/mol/M
same,denaturant midpoint (higher = more stable),pH 7,2.97 M
same,unfolding free energy,pH 7,8.74 kcal/mol

# — FireProtDB (doi:10.1042/bj2870481)
